Experiment: label from the status in PepcDB records
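Note: failed if final PepcDB status was selected cloned or expressed and not failed if soluble or beyond.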

| Sequence | protein production |
| --- | --- |
| MHQPHLSAEEKQHSHDHLSLDLIEAQYQLKNSAGKKNAKSVLVLVSGIELAGKGESVKQLREWVDPRYLRVKADPPQLLTTNQTFWQPYSSFIPAEGQIVVLFGNWYSDLLTTAMHVSKPLDETLFDAYVNSMRAFEQDLKNNHVDVVKVWFDLSWKSLQKRLDHIDASERQWHKLHGLDWRSKKQYETLQKLRQRFTPDWVFIDGEDEALRDREFAECILKALKDVPDHVQQADAAWTQSVVPQALLQPSSEVLEKAKYKKKLKKLTRRVADALRYDQRNVIVVFEGMDAAGKGGSIKRIVKRLDPREYDIFTISAPEKYELRHPYLWRFWTKLQNCSDIRIFDRSWYGRVLVERVEAFASDIEWQRAYDEINRFEKDLTDSQTVIVKIWLSISKEEQEKRFEAREKTPHKRFKITEDDWRNRAKWDEYLNAAADMFEHTSTDCAPWTIIATDDKPTARIKMLKAILKQLKSK | failed |
| MAPGAAQELQAKLAEIGAPIQGNREELVERLQSYTRQTGIVLNRPVLRGEDGDKAAPPPMSAQ | failed |
| MNFSESFKLSGLLCRFSPDGKYLASCVQYRLVIRDVTTLQILQLYTCLDQIQHIEWSADSLFILCAMYRRGLVQVWSLEQPEWHCKIDEGSAGLVASCWSPDGRHILNTTEFHLRITVWSLCTKSVSYIKYPKACQQGLTFTRDGRYLALAERRDCRDYVSIFVCSDWQLLRHFDTDTQDLTGIEWAPNGCVLAAWDTCLEYKVLLYSLDGRLLSAYCAYEWSLGIKSVAWSPSSQFLAIGSYDGKVRLLNHVTWKMITEFGHPATINNPKTVVYKEAEKSPLLGLGHLSFPPPRAMAGALSTSESKYEIASGPVSLQTLKPVADRANPRMGVGMLAFSSDSYFLASRNDNVPNAVWIWDIQKLKLFVVLEHMSPVRSFQWDPQQPRLAICTGGSKVYLWSPAGCVSVQVPGEGDFPVLGLCWHLSGDSLALLSKDHFCLCFLETKERVGTAYEQRDGMPRT | failed |
| DRDQTLALMAQMTIPTLATWCAVYTIADQASEPYLSYVLHEDEDRIDGVKALLSKIPPPEPIPTPGARVWSAPAQAAHEAALRTSMRSLGLGEPATVSSGIGTTLATASAVGGETVVLPLVARNRVIGMLTLGKPSDEHFRQEILELAEDLSRRAALALDNARLYSERTAISQSLQRSLLPPDLPHI | failed |
| MKTSRSSIGKSIFLAATMLATGSAAWAGQAPGALSSPDIPISHHDRVYAAEQFSNTVSVTDPVDNKLLGVIRLGDPQPGNFSPLYKGQVLVHGMGFSPDHKMLAVVSIGSNSVTFIDTATNAVKHTTYIGRSPHEAFFTPDGKEVWVTVRGENYISVIDPQSFEERRRITTPSGPGMQMFSPDGKYAYICSSFNPETDVVAVAEHKIIAKVKQESPFCPNIAVTPDGNQVWFTLKDTGRTQVFNARPPFNPIRTIDTGPITNHVNFAHTARGTFAYVTIGGLNQVKVFRTDDFSQVATIPVGNLPHGVWPSGDGTRIYVGLENADALAAIDTATNSVVANVPIGQAPQAIAYVPGAAPNPDDRQNLQALGVAGQFAHLALASRDGSKDGKAPTSVSLFDQGLIQILQASVTGLEPRQKYVLALAEHGDGSGTLQPLAAFMTNPAGSAIVNAAGPIRQIVDQSAAAARRYLVIASGDVAMPGEAVQIEAQ | failed |
| EASSKSYRELIIEGLTALKERKGSSRPALKKFIKENYPIVGSASNFDLYFNNAIKKGVEAGDFEQPKGPAGAVKLAKK | not failed |
| MNNGRRIGLIMIITGATLWGLSGPMIQWLFQHTNVSSIDFLTIRLLLAGIFILSFLLIKKQNIFQIWKHPRHSIQLIIFSILGMLGAQYAFIETVHISNAVTATLFQFLGPVFITIYVAFEQRKFPASMQLLAIITALTGTYFIITNGSIENIVLSKEAIIFGLLTAIGFAFYTLHPASLIKECGTTLVIGWGMLIGGIALLICNRSFGWHELSQTFTTKTFSMLILIIISGTLSFLLYIGSLKYLAATETSILSSIEPLVAAIVSIAWLNESFGAYQLLGGVCIVLSVIFLTMPQKENEPAFTSEQI | failed |
| MKKKKAHAAGAGPKLSVTNPPRTFFEDTLALFNSRRFDLLDQKINEAVNKWPNHAVVWKAIGVIMLMEGRFKEAIEPLTTAANLAQGDAQLHHNLGVAYLRLEQYEKAVPWLQRATSLKPDYAQAFANLGIAQAEIGLLQAAESNYRTALKINKDFPEALNNLGNVLNDQKRYGEAEECFRRALVLKPDFAEALNNLGTSLKGLNRLEEAETTYRKSLSLMPDYTRAHIGLGHTLFKLRQPDKAAASFRRAIELSPYELEAHDGLSMTLGDTVPLWHLPMMNDKPRNDAYFNALQAAVTPETRVLEIGTGSGLLSMMSARLGARHVTTCEVVTAIAETAASIVKDNGFADQVTVIPKLSTTLEVGVDLEERADLLVSEILSSEFLGEGVLSSIEDAKRRLLKPGARIIPARGSVRIALFGGRDIEMNVRVDEVYGFDLSRFNDIVPPKQYVGRNDLNIELLSDGIGAIHFDFMGTDHFPTSRSYGIDVPITRAGRCCGVIQWIRLEMDDTFVFENHPAERNVASGWQHCVYLFKTPVDVQPGQVAQIIASHDIRTCWFFLKKIVTP | failed |
| MMPDKKGYIIDIDGVIGKSVTPIPEGVEGVKKLKELGKKIIFVSNNSTRSRRILLERLRSFGLEVGEDEILVATYATARFIAREKPNAKVFTTGEEGLIEELRLAGLEIVDYDEAEYLVVGSNRKINFELMTKALRACLRGIRYIATNPDRIFPAEDGPIPGTGMIIGALYWMTGREPDVVVGKPSEVIMREALDILGLDAKDVAVVGDQIDVDVAAGKAIGAETVLVLTGVTTRENLDQMIERHGLKPDYVFNSLKDMVEALEG | not failed |
| MDDLKTRVITASVVAPFVVLCFVSYESLIGLVSAILILAGYELITLEMKERDARFFYVILLALYPVLYGLVFEEPTQPLSILFITGVVFSLITDKDPSQVFKTVAAFSIALIYVTFFLSFFLPIYRDFGAANALLVLTSTWVFDSFAYFTGLKFGRTRISPRYSPRKSLEGVIGGFLGVVIYTFLYRLVVNDLLSVNVISFRTFLPFAATVAIMDTFGDIFESALKRHYGVKDSGKTLPGHGGMLDRIDGLLFVAPVSYIVFKILEGVVR | failed |
| MGAFFMSVVSAFAGAAEACRPTGALQNVEVARVVDGDTVRLRDGRSVRLIGINAPELAHNGRTTEPFAEAAKQRLQALVSASDGRLALQPGRQARDHYGRTLAHLFDASGANLEARLLGEGLGYLVAVAPNTELTACQQAAERAARSANLGVWKRSPVLSLDRLAQSGFAVVRGRVLEVERNRGGIWLEMDGPLVLRIEPKVLKAFDAKRVMQMAGRSLEVRGWVVDRSRRGAVPAGKARWQMSVTDPAMLEWLPLEHHHHHH | failed |
| MTDNNQNNENHENSSENSKADEMRAGAFERFTNRKKRFRENAQKNAEYSNHEASSHHKKEHRPNKKPNNHHKQKHAKTRNYAQEELDSNKVEGVTEILHVNERGTLGFHKELKKGVEANNKIQVEHLNPHYKMNLNSKASVKITPLGGLGEIGGNMMVIETPKSAIVIDAGMSFPKEGLFGVDILIPDFSYLHQIKDKIAGIIITHAHEDHIGATPYLFKELQFPLYGTPLSLGLIGSKFDEHGLKKYRSYFKIVEKRCPISVGEFIIEWIHITHSIIDSSALAIQTKAGTIIHTGDFKIDHTPVDNLPTDLYRLAHYGEKGVMLLLSDSTNSHKSGTTPSESTIAPAFDTLFKEAQGRVIMSTFSSNIHRVYQAIQYGIKYNRKIAVIGRSMEKNLDIARELGYIHLPYQSFIEANEVAKYPDNEILIVTTGSQGETMSALYRMATDEHRHISIKPNDLVIISAKAIPGNEASVSAVLNFLIKKEAKVAYQEFDNIHVSGHAAQEEQKLMLRLIKPKFFLPVHGEYNHVARHKQTAISCGVPEKNIYLMEDGDQVEVGPAFIKKVGTIKSGKSYVDNQSNLSIDTSIVQQREEVASAGVFVATIFVNKNKQALLESSQFSSLGLVGFKDEKPLIKEIQGGLEVLLKSSNAEILNNPKKLEDHTRNFIRKALFKKFRKYPAIICHAHSF | failed |
| MRRPPVVGVLLAAGRGSRFDPDGTVNKLLAALPDGTPVAVQAARHLRAVLDDVVAVVPAAGTHGAEVERLAALLAEAGCEVLRCARAARGMGASLAAGVAARPHAGGWIIALADMPWLAPHTIARVAQALDARHCVAPFHQGRRGHPIGFGADYFAGLAALDGDEGARALIDPARLIRLDVGDAGTLRDVDTPADVCGA | failed |
| MSKITFKDIYIDGNKITEDSRKAIYLLPPQPLKYASNTWIYKTMPTMNQWLKDIEVQKKMHLNQSSYHLSFSFPANEKIDEVLLEKIRELGFQIGVLELYVIEAKALKELSRKRDVDIQLVSSNNINDYLHVYDAFARPFGDSYANMVKQHIYSSYNLDDIERLVAYVNHQPVGIVDIIMTDKTIEIDGFGVLEEFQHQGIGSEIQAYVGRMANERPVILVADGKDTAKDMYLRQGYVYQGFKYHILKENI | not failed |
| MAHHHHHHMNPHPVEPRDQIAELLVESPLFSFNCAHFIAFKGFRETLHGHNYNVSLRLRGNIQGDGYVIDFSILKEKVRKVCKQLDHHFILPMYSDVLNIQEVNDNFKITCEDNSEYSFPKRDCVQIPIKHSSTEEIGLYILNQLIEEIDLPFLKTRSVNYMEVTVSESPSQKATVHRNI | not failed |
| GPLGSMIVFVRFNSSHGFPVEVDSDTSIFQLKEVVAKRQGVPADQLRVIFAGKELRNDWTVQNCDLDQQSIVHIVQRPWRK | not failed |
| MEGTLSFVSGFAPAVYRRELFRHRCVTTAPEARAWPRLGLLRANSGARLSRVDITPEIYKRLVSMAKRTEGNFSAVAGAILESYLTAATNRDLRAVIFDMDGVLCDSERLSRAAGVEYFRRYHGVWPTEKDFADFAGTGEAAFLSGVARRYSVKDFDVNKAKEGFFNIYVNEYVSALEPFEGVREFIQQIKTMGLKTALASSADAIKVHANLSAIGFERDMFDFVTRSDEIANKKPAPDIFLAAAEGLGVPPESCVVIEDAPAGVLAAKRARMRCVAVATSVSAQLLWDAGADIVRPAPQYIMLDDIVITDDADASAPASASQE | failed |
| MPKLTKRILDAAGARPTPYFLWCSDLKGFGVRIFPSGRRVYYADYRTAAGMRRRMSLGEHGKLTVDEARRLAITTLGDVIRGDDPIEERVTRRKSLTIAELCRRYLEAAGAGLVLGRGRKPKKATTLVSDRGRIEHHIVPLLGSRLVRDLTTAEVQRFVRDVQAGRTAKRYKTKARGMVLVEGGAGAAARTAGLLGGIMSYAIGEGVIALNPVRGVKRPADRKKDRRLSPEEYRALGRVLAEAEGDRESWQAVSSIQLLCLTGCRMREIANLRWTEVDFAGRCLRLDNTKEGRSIRPLGQAAVALLRQIEERRAGPYVLPATRGEGGFGGIPDAIERYSKRAGLPGIGAHTLRHSFASTAADLGCSDSTIGAMLGHAGHGVTSRYIHHLDAVLIMAADRVTTAMAGWLKDRYAERLEPAYPASRTVPLS | failed |
| MKLLLTRPEGKNAAMASALDALAIPYLVEPLLSVEAAAVTQAQLDELSRADILIFISTSAVSFATPWLKDQWPKATYYAVGDATADALALQGITAERSPADSQATEGLLTLPSLEQVSGKQIVIVRGKGGREAMADGLRLRGANVSYLEVYQRACPPLDAPASVSRWQSFGIDTIVVTSGEVLENLINLVPKDSFAWLRDCHIIVPSARVETQARKKGLRRVTNAGAANQAAVLDALGM | not failed |
| PPQAMNALMRLNQLKPGLQYKLVSQTGPVHAPIFTMSVEVDGNSFEASGPSKKTAKLHVAVKVLQDMGLPTGAEGRDSSKGEDS | failed |
| MNKKTIGFFSGIAVFAIIYFLPIAGLSAKGQMDLALSLMTVVWWATQIAQPAFVGGIYLMLLIIMNVATPSQVFSSAWTGSIMWLVIGAYLIAGAVNESGLGQRIAYAFIIKFVRSWKGIVISIFALTFILALLIPHPWPRAFMIMSVITVVAETAKMPKRDLAKLGLAVFAASCPLSGVFYTGDTSLNPLAVQASGQSVNFVSYFIYMGVPMIIAAILTMFLFLFLFKPSQEVHIDVEALKQQQAQLGGMTGKEVRTIIWLIIAIALWLTSGITGLDVGWLTLIVALMMSLPVVGGILTAKSWEGVPVNVLVFLTSAIAIGNVGGVTGMNNWIAKTLIPSNLPTNIYLLAIVITVFAMIIHMFMGSVIAVMGITIPAFVAATAHMGISPLAVSLLVFSVTNLHYILPFHNLAVLVGSDPDTGGGYTQKDVMRLGIPLTAVVFVVALVEMFWFHLVGLA | failed |
